US20240238380A1 (YUHAN, published 2024)

B1: FM9-1 + Fc_hole long-acting GDF15 fusion protein (dimer) (Fc fusion)
chain 1: APEAAGGPSVFLFPPKPKDTLMISRTPEVTCVVVDVSHEDPEVKFNWYVDGVEVHNAKTKPREEQYASTYRVVSVLTVLHQDWLNGKEYKCKVSNKALPAPIEKTISKAKGQPREPQVYTLPPSREEMTKNQVSLWCLVKGFYPSDIAVEWESNGQPENNYKTTPPVLDSDGSFFLYSKLTVDKSRWQQGNVFSCSVMHEALHNHYTQKSLSLSPGKGSGGGGSGGGGSGGGGSNGDHCPLGPGRCCRLHTVRASLEDLGWADWVLSPREVQVTMCIGACPSQFRAANMHAQIKTRLHRLKPDTVPAPCCVPASYNPMVLIQKTDTGVSLQTYDDLLAKDCHCI
chain 2: APEAAGGPSVFLFPPKPKDTLMISRTPEVTCVVVDVSHEDPEVKFNWYVDGVEVHNAKTKPREEQYASTYRVVSVLTVLHQDWLNGKEYKCKVSNKALPAPIEKTISKAKGQPREPQVYTLPPSREEMTKNQVSLSCAVKGFYPSDIAVEWESNGQPENNYKTTPPVLDSDGSFFLVSKLTVDKSRWQQGNVFSCSVMHEALHNHYTQKSLSLSPGK
B2: FM9-4 + Fc_hole long-acting GDF15 fusion protein (dimer) (Fc fusion)
chain 1: APEAAGGPSVFLFPPKPKDTLMISRTPEVTCVVVDVSHEDPEVKFNWYVDGVEVHNAKTKPREEQYASTYRVVSVLTVLHQDWLNGKEYKCKVSNKALPAPIEKTISKAKGQPREPQVYTLPPSREEMTKNQVSLWCLVKGFYPSDIAVEWESNGQPENNYKTTPPVLDSDGSFFLYSKLTVDKSRWQQGNVFSCSVMHEALHNHYTQKSLSLSPGKGSEEEAEEEAEEEAEEEAEEEAEEEANGDHCPLGPGRCCRLHTVRASLEDLGWADWVLSPREVQVTMCIGACPSQFRAANMHAQIKTRLHRLKPDTVPAPCCVPASYNPMVLIQKTDTGVSLQTYDDLLAKDCHCI
chain 2: B1 chain 2
B3: FM11-6 + Fc_hole long-acting GDF15 fusion protein (dimer) (Fc fusion)
chain 1: APEAAGGPSVFLFPPKPKDTLMISRTPEVTCVVVDVSHEDPEVKFNWYVDGVEVHNAKTKPREEQYASTYRVVSVLTVLHQDWLNGKEYKCKVSNKALPAPIEKTISKAKGQPREPQVYTLPPSREEMTKNQVSLWCLVKGFYPSDIAVEWESNGQPENNYKTTPPVLDSDGSFFLYSKLTVDKSRWQQGNVFSCSVMHEALHNHYTQKSLSLSPGKGSEAAAKEAAAKEAAAKEAAAKEAAAKNSTCPLGPGRCCRLHTVRASLEDLGWADWVLSPREVQVTMCIGACPSQFRAANMHAQIKTRLHRLKPDTVPAPCCVPASYNPMVLIQKTDTGVSLQTYDDLLAKDCHCI
chain 2: B1 chain 2
B4: FM9-6 + Fc_hole long-acting GDF15 fusion protein (dimer) (Fc fusion)
chain 1: APEAAGGPSVFLFPPKPKDTLMISRTPEVTCVVVDVSHEDPEVKFNWYVDGVEVHNAKTKPREEQYASTYRVVSVLTVLHQDWLNGKEYKCKVSNKALPAPIEKTISKAKGQPREPQVYTLPPSREEMTKNQVSLWCLVKGFYPSDIAVEWESNGQPENNYKTTPPVLDSDGSFFLYSKLTVDKSRWQQGNVFSCSVMHEALHNHYTQKSLSLSPGKGSEAAAKEAAAKEAAAKEAAAKEAAAKNGDHCPLGPGRCCRLHTVRASLEDLGWADWVLSPREVQVTMCIGACPSQFRAANMHAQIKTRLHRLKPDTVPAPCCVPASYNPMVLIQKTDTGVSLQTYDDLLAKDCHCI
chain 2: B1 chain 2
B5: FM9-5 + Fc_hole long-acting GDF15 fusion protein (dimer) (Fc fusion)
chain 1: APEAAGGPSVFLFPPKPKDTLMISRTPEVTCVVVDVSHEDPEVKFNWYVDGVEVHNAKTKPREEQYASTYRVVSVLTVLHQDWLNGKEYKCKVSNKALPAPIEKTISKAKGQPREPQVYTLPPSREEMTKNQVSLWCLVKGFYPSDIAVEWESNGQPENNYKTTPPVLDSDGSFFLYSKLTVDKSRWQQGNVFSCSVMHEALHNHYTQKSLSLSPGKGSGGSSPTPTPTPTPTPTPTPTPTPTNGDHCPLGPGRCCRLHTVRASLEDLGWADWVLSPREVQVTMCIGACPSQFRAANMHAQIKTRLHRLKPDTVPAPCCVPASYNPMVLIQKTDTGVSLQTYDDLLAKDCHCI
chain 2: B1 chain 2
B6: FM11-2 + Fc_hole long-acting GDF15 fusion protein (dimer) (Fc fusion)
chain 1: APEAAGGPSVFLFPPKPKDTLMISRTPEVTCVVVDVSHEDPEVKFNWYVDGVEVHNAKTKPREEQYASTYRVVSVLTVLHQDWLNGKEYKCKVSNKALPAPIEKTISKAKGQPREPQVYTLPPSREEMTKNQVSLWCLVKGFYPSDIAVEWESNGQPENNYKTTPPVLDSDGSFFLYSKLTVDKSRWQQGNVFSCSVMHEALHNHYTQKSLSLSPGKGSGGGGSGGGGSGGGGSGGGGSGGGGSNSTCPLGPGRCCRLHTVRASLEDLGWADWVLSPREVQVTMCIGACPSQFRAANMHAQIKTRLHRLKPDTVPAPCCVPASYNPMVLIQKTDTGVSLQTYDDLLAKDCHCI
chain 2: B1 chain 2
B7: FM9-3 + Fc_hole long-acting GDF15 fusion protein (dimer) (Fc fusion)
chain 1: APEAAGGPSVFLFPPKPKDTLMISRTPEVTCVVVDVSHEDPEVKFNWYVDGVEVHNAKTKPREEQYASTYRVVSVLTVLHQDWLNGKEYKCKVSNKALPAPIEKTISKAKGQPREPQVYTLPPSREEMTKNQVSLWCLVKGFYPSDIAVEWESNGQPENNYKTTPPVLDSDGSFFLYSKLTVDKSRWQQGNVFSCSVMHEALHNHYTQKSLSLSPGKGSGGGGSGGGGSGGGGSGGGGSGGGGSGGGGSGGGGSNGDHCPLGPGRCCRLHTVRASLEDLGWADWVLSPREVQVTMCIGACPSQFRAANMHAQIKTRLHRLKPDTVPAPCCVPASYNPMVLIQKTDTGVSLQTYDDLLAKDCHCI
chain 2: B1 chain 2
B8: FM9-2 + Fc_hole long-acting GDF15 fusion protein (dimer) (Fc fusion)
chain 1: APEAAGGPSVFLFPPKPKDTLMISRTPEVTCVVVDVSHEDPEVKFNWYVDGVEVHNAKTKPREEQYASTYRVVSVLTVLHQDWLNGKEYKCKVSNKALPAPIEKTISKAKGQPREPQVYTLPPSREEMTKNQVSLWCLVKGFYPSDIAVEWESNGQPENNYKTTPPVLDSDGSFFLYSKLTVDKSRWQQGNVFSCSVMHEALHNHYTQKSLSLSPGKGSGGGGSGGGGSGGGGSGGGGSGGGGSNGDHCPLGPGRCCRLHTVRASLEDLGWADWVLSPREVQVTMCIGACPSQFRAANMHAQIKTRLHRLKPDTVPAPCCVPASYNPMVLIQKTDTGVSLQTYDDLLAKDCHCI
chain 2: B1 chain 2
B9: FM11-4 + Fc_hole long-acting GDF15 fusion protein (dimer) (Fc fusion)
chain 1: APEAAGGPSVFLFPPKPKDTLMISRTPEVTCVVVDVSHEDPEVKFNWYVDGVEVHNAKTKPREEQYASTYRVVSVLTVLHQDWLNGKEYKCKVSNKALPAPIEKTISKAKGQPREPQVYTLPPSREEMTKNQVSLWCLVKGFYPSDIAVEWESNGQPENNYKTTPPVLDSDGSFFLYSKLTVDKSRWQQGNVFSCSVMHEALHNHYTQKSLSLSPGKGSEEEAEEEAEEEAEEEAEEEAEEEANSTCPLGPGRCCRLHTVRASLEDLGWADWVLSPREVQVTMCIGACPSQFRAANMHAQIKTRLHRLKPDTVPAPCCVPASYNPMVLIQKTDTGVSLQTYDDLLAKDCHCI
chain 2: B1 chain 2
B10: FM11-1 + Fc_hole long-acting GDF15 fusion protein (dimer) (Fc fusion)
chain 1: APEAAGGPSVFLFPPKPKDTLMISRTPEVTCVVVDVSHEDPEVKFNWYVDGVEVHNAKTKPREEQYASTYRVVSVLTVLHQDWLNGKEYKCKVSNKALPAPIEKTISKAKGQPREPQVYTLPPSREEMTKNQVSLWCLVKGFYPSDIAVEWESNGQPENNYKTTPPVLDSDGSFFLYSKLTVDKSRWQQGNVFSCSVMHEALHNHYTQKSLSLSPGKGSGGGGSGGGGSGGGGSNSTCPLGPGRCCRLHTVRASLEDLGWADWVLSPREVQVTMCIGACPSQFRAANMHAQIKTRLHRLKPDTVPAPCCVPASYNPMVLIQKTDTGVSLQTYDDLLAKDCHCI
chain 2: B1 chain 2
B11: FM11-3 + Fc_hole long-acting GDF15 fusion protein (dimer) (Fc fusion)
chain 1: APEAAGGPSVFLFPPKPKDTLMISRTPEVTCVVVDVSHEDPEVKFNWYVDGVEVHNAKTKPREEQYASTYRVVSVLTVLHQDWLNGKEYKCKVSNKALPAPIEKTISKAKGQPREPQVYTLPPSREEMTKNQVSLWCLVKGFYPSDIAVEWESNGQPENNYKTTPPVLDSDGSFFLYSKLTVDKSRWQQGNVFSCSVMHEALHNHYTQKSLSLSPGKGSGGGGSGGGGSGGGGSGGGGSGGGGSGGGGSGGGGSNSTCPLGPGRCCRLHTVRASLEDLGWADWVLSPREVQVTMCIGACPSQFRAANMHAQIKTRLHRLKPDTVPAPCCVPASYNPMVLIQKTDTGVSLQTYDDLLAKDCHCI
chain 2: B1 chain 2
B12: FM11-5 + Fc_hole long-acting GDF15 fusion protein (dimer) (Fc fusion)
chain 1: APEAAGGPSVFLFPPKPKDTLMISRTPEVTCVVVDVSHEDPEVKFNWYVDGVEVHNAKTKPREEQYASTYRVVSVLTVLHQDWLNGKEYKCKVSNKALPAPIEKTISKAKGQPREPQVYTLPPSREEMTKNQVSLWCLVKGFYPSDIAVEWESNGQPENNYKTTPPVLDSDGSFFLYSKLTVDKSRWQQGNVFSCSVMHEALHNHYTQKSLSLSPGKGSGGSSPTPTPTPTPTPTPTPTPTPTNSTCPLGPGRCCRLHTVRASLEDLGWADWVLSPREVQVTMCIGACPSQFRAANMHAQIKTRLHRLKPDTVPAPCCVPASYNPMVLIQKTDTGVSLQTYDDLLAKDCHCI
chain 2: B1 chain 2

Molecular target: GFRAL/RET overexpressed on HEK293 cells (GFRAL/RET/SRE-luc-overexpressing HEK293 cell line) (UniProt Q6UXV0 19-394; P07949 29-1114, limits assumed)
Test: cell-based or functional assay

GFRAL/RET overexpressed on HEK293 cells (GFRAL/RET/SRE-luc-overexpressing HEK293 cell line), sequence (Q6UXV0 19-394 limits assumed, chain 1 of 2): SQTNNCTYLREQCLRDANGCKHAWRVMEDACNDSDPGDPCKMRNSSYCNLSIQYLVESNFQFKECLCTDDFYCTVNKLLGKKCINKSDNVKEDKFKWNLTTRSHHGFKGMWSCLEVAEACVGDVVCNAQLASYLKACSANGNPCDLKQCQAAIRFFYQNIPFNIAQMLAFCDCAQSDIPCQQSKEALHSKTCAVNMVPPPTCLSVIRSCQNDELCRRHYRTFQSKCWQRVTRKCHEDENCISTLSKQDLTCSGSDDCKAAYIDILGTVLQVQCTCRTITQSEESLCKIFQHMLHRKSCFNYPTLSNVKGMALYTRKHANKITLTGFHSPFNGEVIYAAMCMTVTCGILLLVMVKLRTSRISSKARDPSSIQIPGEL
GFRAL/RET overexpressed on HEK293 cells (GFRAL/RET/SRE-luc-overexpressing HEK293 cell line), sequence (P07949 29-1114 limits assumed, chain 2 of 2): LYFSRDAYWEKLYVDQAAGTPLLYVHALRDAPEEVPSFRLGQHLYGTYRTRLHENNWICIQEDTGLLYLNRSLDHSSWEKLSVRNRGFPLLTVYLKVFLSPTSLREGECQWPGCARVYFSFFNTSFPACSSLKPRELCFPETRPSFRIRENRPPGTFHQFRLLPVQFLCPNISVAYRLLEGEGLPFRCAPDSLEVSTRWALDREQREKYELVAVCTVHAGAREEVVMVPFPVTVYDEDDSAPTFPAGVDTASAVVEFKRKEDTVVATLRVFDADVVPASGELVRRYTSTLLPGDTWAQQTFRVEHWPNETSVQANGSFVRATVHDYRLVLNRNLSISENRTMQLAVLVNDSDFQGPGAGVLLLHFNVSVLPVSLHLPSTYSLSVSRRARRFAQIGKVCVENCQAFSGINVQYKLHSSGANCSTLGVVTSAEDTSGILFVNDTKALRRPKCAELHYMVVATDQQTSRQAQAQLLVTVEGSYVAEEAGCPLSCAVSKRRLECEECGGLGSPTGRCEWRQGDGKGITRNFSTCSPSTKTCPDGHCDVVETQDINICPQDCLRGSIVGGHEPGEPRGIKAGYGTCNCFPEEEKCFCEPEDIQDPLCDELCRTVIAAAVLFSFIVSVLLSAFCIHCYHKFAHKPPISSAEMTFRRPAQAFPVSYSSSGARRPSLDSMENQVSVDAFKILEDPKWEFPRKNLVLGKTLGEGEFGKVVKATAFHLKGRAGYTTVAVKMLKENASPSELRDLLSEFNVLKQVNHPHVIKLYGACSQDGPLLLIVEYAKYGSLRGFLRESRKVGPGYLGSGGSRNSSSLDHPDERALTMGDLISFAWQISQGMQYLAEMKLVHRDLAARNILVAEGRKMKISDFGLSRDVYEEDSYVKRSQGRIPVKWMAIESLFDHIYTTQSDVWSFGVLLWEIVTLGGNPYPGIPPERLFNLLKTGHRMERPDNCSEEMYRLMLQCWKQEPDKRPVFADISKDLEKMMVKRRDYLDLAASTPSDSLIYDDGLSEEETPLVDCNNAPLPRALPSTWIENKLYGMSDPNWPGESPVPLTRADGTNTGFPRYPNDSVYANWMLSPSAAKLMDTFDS

**Q.** With B1 as the binder, how does the “EC50 (nM), SRE-luciferase reporter (RLU)” value read?
**A.** 9 nM

**Q.** What about the “Emax (%), SRE-luciferase reporter (RLU), relative to FM9-6+Fc_hole” value (from here on “Emax (%) … relative to FM9-6+Fc_hole”) of the same binder?
**A.** 97.6%

**Q.** What does the source list for B2?
**A.** EC50 (nM), SRE-luciferase reporter (RLU): 23.6 nM; Emax (%), SRE-luciferase reporter (RLU), relative to FM9-6+Fc_hole: 128%

**Q.** Which “EC50 (nM), SRE-luciferase reporter (RLU)” value does the source give for B3 here?
**A.** 6.8 nM

**Q.** What about the “Emax (%) … relative to FM9-6+Fc_hole” value of the same binder?
**A.** 80.3%

**Q.** Which “EC50 (nM), SRE-luciferase reporter (RLU)” value does the source give for B4 here?
**A.** 6.3 nM

**Q.** How did the “EC50 (nM), SRE-luciferase reporter (RLU)” value turn out when B5 was run?
**A.** 5.3 nM

**Q.** What about the “Emax (%) … relative to FM9-6+Fc_hole” value of the same binder?
**A.** 100%

**Q.** How did the “EC50 (nM), SRE-luciferase reporter (RLU)” value turn out when B6 was run?
**A.** 7.7 nM

**Q.** What about the “Emax (%) … relative to FM9-6+Fc_hole” value of the same binder?
**A.** 79.4%

**Q.** Which results are given for B7?
**A.** EC50 (nM), SRE-luciferase reporter (RLU): 9.3 nM; Emax (%), SRE-luciferase reporter (RLU), relative to FM9-6+Fc_hole: 95.6%

**Q.** What does the source list for B8?
**A.** EC50 (nM), SRE-luciferase reporter (RLU): 9.5 nM; Emax (%), SRE-luciferase reporter (RLU), relative to FM9-6+Fc_hole: 111%

**Q.** B9 was tested. Which “EC50 (nM), SRE-luciferase reporter (RLU)” value did it give?
**A.** 45.4 nM

**Q.** What about the “Emax (%) … relative to FM9-6+Fc_hole” value of the same binder?
**A.** 105%

**Q.** How did the “EC50 (nM), SRE-luciferase reporter (RLU)” value turn out when B10 was run?
**A.** 9.7 nM

**Q.** What about the “Emax (%) … relative to FM9-6+Fc_hole” value of the same binder?
**A.** 65.6%

**Q.** For B11, which “EC50 (nM), SRE-luciferase reporter (RLU)” value is on record?
**A.** 7.8 nM

**Q.** And the “Emax (%) … relative to FM9-6+Fc_hole” value?
**A.** 81%

**Q.** B12 was tested. Which “EC50 (nM), SRE-luciferase reporter (RLU)” value did it give?
**A.** 5.1 nM

**Q.** And the “Emax (%) … relative to FM9-6+Fc_hole” value?
**A.** 68.2%
